Measurements from patent US20260055194A1.

Tests used:
[1] = biological target: human CI-M6PR on K562 cells (human) (UniProt P11717); experiment: flow cytometry, cell surface stain, M6PR-KO K562 cells, Alexa 647
[2] = biological target: human CI-M6PR on K562 cells (human) (UniProt P11717); experiment: flow cytometry, cell surface stain, wild type K562 cells, Alexa 647
[3] = biological target: human CI-M6PR on K562 cells (human) (UniProt P11717); experiment: flow cytometry dot plot, cell surface stain, M6PR-KO K562 cells [Cont. 2]
[4] = biological target: human CI-M6PR on K562 cells (human) (UniProt P11717); experiment: flow cytometry dot plot, intracellular stain, M6PR-KO K562 cells [Cont. 2]
[5] = biological target: human CI-M6PR on K562 cells (human) (UniProt P11717); experiment: flow cytometry dot plot, cell surface stain, wild type K562 cells [Cont. 1]
[6] = biological target: human CI-M6PR on K562 cells (human) (UniProt P11717); experiment: flow cytometry dot plot, intracellular stain, wild type K562 cells [Cont. 1]
[7] = biological target: human CI-M6PR on K562 cells (human) (UniProt P11717); experiment: flow cytometry, intracellular stain (fixed, permeabilized), M6PR-KO K562 cells, Alexa 647
[8] = biological target: human CI-M6PR on K562 cells (human) (UniProt P11717); experiment: flow cytometry, intracellular stain (fixed, permeabilized), wild type K562 cells, Alexa 647
[9] = biological target: human CI-M6PR on K562 cells (human) (UniProt P11717); experiment: cell-based or functional assay

Sequence of human CI-M6PR on K562 cells (human) (P11717 41-2491): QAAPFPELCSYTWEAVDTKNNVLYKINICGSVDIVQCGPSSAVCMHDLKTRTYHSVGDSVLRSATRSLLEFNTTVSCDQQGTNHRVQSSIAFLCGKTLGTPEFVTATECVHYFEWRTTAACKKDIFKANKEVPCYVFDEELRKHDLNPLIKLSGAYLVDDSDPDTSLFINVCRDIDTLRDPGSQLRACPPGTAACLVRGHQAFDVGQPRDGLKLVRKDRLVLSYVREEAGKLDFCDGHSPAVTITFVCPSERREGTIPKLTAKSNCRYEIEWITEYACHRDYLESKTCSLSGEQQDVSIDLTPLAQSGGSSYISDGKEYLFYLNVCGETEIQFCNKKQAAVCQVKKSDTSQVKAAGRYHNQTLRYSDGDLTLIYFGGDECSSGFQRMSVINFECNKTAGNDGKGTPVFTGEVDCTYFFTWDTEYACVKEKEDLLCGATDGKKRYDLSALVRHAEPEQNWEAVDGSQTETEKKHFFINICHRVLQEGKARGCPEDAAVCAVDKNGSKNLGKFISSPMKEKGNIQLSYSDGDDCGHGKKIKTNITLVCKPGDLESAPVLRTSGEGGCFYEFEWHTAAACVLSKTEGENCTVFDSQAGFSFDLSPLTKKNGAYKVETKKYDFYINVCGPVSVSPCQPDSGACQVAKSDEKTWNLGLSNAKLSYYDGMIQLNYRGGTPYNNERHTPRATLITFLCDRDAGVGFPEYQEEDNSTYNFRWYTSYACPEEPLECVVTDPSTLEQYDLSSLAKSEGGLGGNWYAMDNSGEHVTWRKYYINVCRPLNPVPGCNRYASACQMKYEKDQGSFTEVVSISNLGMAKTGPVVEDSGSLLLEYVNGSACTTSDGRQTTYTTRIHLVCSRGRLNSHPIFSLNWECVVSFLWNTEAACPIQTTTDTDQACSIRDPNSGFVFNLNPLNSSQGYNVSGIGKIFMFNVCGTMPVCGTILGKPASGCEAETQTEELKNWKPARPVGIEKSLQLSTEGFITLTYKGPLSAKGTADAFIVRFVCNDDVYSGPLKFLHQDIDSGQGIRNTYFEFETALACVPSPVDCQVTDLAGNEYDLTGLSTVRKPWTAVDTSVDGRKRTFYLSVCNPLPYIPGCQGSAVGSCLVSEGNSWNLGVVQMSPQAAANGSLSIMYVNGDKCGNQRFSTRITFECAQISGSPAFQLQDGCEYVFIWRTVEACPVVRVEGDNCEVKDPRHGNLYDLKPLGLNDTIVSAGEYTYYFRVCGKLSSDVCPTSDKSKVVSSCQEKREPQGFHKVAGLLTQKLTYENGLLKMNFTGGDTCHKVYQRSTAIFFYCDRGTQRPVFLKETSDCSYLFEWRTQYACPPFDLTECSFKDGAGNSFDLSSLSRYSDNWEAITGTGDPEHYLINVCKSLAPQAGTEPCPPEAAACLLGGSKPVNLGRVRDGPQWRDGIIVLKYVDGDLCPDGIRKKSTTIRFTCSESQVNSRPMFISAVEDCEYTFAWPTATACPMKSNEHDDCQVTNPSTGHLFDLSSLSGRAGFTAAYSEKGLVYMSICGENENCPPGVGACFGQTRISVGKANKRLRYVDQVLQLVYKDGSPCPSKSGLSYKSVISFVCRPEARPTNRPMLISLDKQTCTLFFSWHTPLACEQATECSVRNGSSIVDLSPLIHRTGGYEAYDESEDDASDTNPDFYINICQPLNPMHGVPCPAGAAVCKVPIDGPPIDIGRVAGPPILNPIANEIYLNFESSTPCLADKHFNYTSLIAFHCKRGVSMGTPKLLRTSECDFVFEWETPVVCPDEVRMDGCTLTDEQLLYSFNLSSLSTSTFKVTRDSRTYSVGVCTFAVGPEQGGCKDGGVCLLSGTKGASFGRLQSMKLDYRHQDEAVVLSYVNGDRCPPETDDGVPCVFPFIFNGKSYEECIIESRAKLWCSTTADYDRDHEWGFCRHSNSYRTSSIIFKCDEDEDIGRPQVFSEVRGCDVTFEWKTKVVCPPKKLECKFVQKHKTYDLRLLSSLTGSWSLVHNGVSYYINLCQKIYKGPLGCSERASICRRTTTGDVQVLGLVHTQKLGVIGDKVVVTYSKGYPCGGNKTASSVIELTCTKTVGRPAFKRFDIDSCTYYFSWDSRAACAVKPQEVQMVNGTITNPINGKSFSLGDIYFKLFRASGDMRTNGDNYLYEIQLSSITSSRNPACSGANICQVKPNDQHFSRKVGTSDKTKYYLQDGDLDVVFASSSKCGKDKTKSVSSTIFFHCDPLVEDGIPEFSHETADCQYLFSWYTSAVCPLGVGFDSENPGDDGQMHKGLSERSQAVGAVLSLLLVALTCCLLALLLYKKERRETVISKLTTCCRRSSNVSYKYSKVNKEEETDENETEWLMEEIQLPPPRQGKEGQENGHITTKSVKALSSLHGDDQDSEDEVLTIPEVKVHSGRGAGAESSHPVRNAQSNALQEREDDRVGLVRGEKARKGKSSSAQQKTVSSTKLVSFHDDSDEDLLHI
Sequence of KLH-IGF2 (P01344 25-91): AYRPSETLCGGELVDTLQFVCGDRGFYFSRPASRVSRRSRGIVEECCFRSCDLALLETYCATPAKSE

Median : FL18-A on M6PR-KO K562 cells (target knocked out, control) [1] | Median : FL18-A [2] | Q1 on M6PR-KO K562 cells (target knocked out, control) [3] [%] | Q1 on M6PR-KO K562 cells (target knocked out, control) [4] [%] | Q1 (events above the Alexa 647 gate, below the FITC gate) [5] | Q1 (events above the Alexa 647 gate, below the FITC gate) [6] | Median : FL18-A on M6PR-KO K562 cells (target knocked out, control) [7] | Median : FL18-A [8] | Uptake pHrodo (MFI) [9] [MFI] | Substance
14.9 | 15.7 | 1.47 | 0.39 | 0.39 | 0.48 | 35.3 | 48.4 |  | IgG1-647 (antibody)
 |  |  |  |  |  |  |  | 210000 | KLH-IGF2 (from UniProt P01344 25-91)
27.7 | 1280 | 13.1 | 86.8 | 99.2 | 99.5 | 220 | 3630 |  | MEM-238-647 (antibody)
